In US5650488A, “Polypeptide inhibitor of the replication of HSV” (British Technology Group Limited, priority 1991, dated 1997):

Target: T1, TRF/Vmw 65/CFF complex (Homo sapiens, UniProt P51610)
T1 construct: A nuclear extract of HeLa cells was prepared; from tissue; host or cells: HeLa cell nuclear extract (TRF, CFF)
Assay: Peptide inhibition of quaternary complex assembly (gel retardation with HeLa nuclear extract, purified Vmw 65 and 32P-labelled TAATGARAT probe)
Format: biochemical, HSV-1
Parameters: key to Level of Inhibition: "+++" indicates a high level inhibition of complex formation; "++" indicates a lower level and so on; "-" indicates no inhibition of complex formation
Protocol: A nuclear extract of HeLa cells was prepared exactly as described by Dignam et al., Nucl. Acids. Res. 11 1475-1489, (1983) (This is a standard protocol for the preparation of extracts containing cellular DNA binding proteins). Polypeptides from Vmw 65 amino acids were synthesised by Cambridge Research Biochemicals Ltd., Cambridge, UK, under contract, in accordance with the sequence set forth above. 1 μl volumes of phosphate buffered saline containing increasing amounts (100 ng, 500 ng, 1 μg, 2.5 μg, 5μg) of the polypeptide (amino acids 360-367) was added to a standard amount of HeLa cell nuclear extract (1 μl extract per 2 μg polypeptide). After incubation at 20° C. for 30 minutes a 1 μl sample of Vmw 65 protein, purified as described by P. O'Hare et al., EMBO J. 7: 4231-4238 (1988) was added to the extract polypeptide mixtures and incubation continued for a further 5 minutes in a buffer containing 25 mM HEPES pH 7.9, 1 mM EDTA, 5 mM DTT, 100 mM KCl, 0.05% NP40 10% glycerol, and 2 μg of salmon sperm DNA. A ^32 P radioactively labelled probe present in excess and encompassing nucleotides -171 to -149 (numbered starting upstream of the site of mRNA transcription: the TAATGARAT sequence is at -162 to -154) of the immediate-early IE110K gene of HSV-1 was then added and incubation continued for a further 25 minutes. […]

T1 sequence (P51610 whole entry, one chain of several): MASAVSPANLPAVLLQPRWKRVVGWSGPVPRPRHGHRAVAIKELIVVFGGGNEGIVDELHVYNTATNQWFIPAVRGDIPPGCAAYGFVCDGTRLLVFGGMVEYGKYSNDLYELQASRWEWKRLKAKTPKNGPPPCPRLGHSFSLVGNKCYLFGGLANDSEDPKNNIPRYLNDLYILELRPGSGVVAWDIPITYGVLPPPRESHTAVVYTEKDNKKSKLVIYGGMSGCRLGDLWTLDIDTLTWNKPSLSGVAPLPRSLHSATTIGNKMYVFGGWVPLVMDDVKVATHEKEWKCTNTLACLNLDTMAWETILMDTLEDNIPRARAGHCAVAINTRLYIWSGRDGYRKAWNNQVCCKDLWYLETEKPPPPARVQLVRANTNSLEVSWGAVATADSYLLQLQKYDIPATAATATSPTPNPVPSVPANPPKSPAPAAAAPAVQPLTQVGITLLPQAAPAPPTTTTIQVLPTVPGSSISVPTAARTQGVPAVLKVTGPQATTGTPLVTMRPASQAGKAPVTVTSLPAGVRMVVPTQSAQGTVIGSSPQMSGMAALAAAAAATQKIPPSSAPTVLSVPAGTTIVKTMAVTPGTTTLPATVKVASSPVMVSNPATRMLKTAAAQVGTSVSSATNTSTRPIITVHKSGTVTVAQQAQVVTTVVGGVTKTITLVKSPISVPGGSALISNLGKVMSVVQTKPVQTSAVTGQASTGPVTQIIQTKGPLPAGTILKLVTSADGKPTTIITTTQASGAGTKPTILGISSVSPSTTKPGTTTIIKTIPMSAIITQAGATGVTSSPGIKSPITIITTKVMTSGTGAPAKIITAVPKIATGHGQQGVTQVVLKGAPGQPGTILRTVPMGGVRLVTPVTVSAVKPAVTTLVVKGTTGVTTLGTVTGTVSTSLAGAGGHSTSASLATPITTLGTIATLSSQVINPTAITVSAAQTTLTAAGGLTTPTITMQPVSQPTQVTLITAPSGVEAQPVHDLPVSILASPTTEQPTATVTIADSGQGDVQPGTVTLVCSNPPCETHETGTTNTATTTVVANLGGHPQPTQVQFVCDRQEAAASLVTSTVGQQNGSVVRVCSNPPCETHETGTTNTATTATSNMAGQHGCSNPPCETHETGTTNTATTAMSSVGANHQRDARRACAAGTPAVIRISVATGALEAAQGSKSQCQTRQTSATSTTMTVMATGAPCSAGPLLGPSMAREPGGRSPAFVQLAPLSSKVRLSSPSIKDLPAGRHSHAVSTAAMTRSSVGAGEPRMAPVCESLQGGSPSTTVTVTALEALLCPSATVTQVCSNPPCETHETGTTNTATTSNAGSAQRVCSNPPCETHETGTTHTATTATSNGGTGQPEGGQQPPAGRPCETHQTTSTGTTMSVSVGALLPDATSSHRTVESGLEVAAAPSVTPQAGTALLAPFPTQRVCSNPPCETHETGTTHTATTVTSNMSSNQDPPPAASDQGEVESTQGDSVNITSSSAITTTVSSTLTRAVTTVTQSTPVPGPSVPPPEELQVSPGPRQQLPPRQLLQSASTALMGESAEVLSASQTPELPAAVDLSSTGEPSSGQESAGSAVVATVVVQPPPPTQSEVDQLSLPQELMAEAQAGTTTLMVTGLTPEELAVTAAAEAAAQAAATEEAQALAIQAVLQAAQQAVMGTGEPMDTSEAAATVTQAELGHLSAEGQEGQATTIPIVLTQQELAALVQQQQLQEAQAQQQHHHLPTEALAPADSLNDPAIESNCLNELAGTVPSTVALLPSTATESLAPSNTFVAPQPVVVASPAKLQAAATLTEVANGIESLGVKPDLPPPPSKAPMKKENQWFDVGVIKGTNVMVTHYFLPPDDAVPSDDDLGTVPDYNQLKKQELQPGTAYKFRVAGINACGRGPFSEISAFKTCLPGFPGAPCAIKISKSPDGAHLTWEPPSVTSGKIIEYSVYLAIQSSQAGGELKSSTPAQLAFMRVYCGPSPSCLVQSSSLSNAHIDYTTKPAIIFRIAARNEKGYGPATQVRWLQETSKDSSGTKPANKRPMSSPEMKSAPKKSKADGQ

Substance: 355-367: polypeptide of region 355-367 of Vmw 65; 360-367 inhibitory region with 355-359 flanking stabilizing region
- Level of Inhibition (inhibition of complex formation, experiment of Example 1 repeated with various Vmw-65 polypeptides): +++
- inhibiting complex formation (result in words) (summary of the Table): effective
